Measurements taken from patent publication US20240376225A1 (CHILDREN S MEDICAL CENTER, published 2024).
Substitutions are numbered along the chain they refer to.

T1: human CD21 on Raji B cells or primary B cells (human, UniProt P20023 21-1033)
T1 construct: whole, on cells; also called cell-surface human CD21; Raji cells
T1 sequence (looked up): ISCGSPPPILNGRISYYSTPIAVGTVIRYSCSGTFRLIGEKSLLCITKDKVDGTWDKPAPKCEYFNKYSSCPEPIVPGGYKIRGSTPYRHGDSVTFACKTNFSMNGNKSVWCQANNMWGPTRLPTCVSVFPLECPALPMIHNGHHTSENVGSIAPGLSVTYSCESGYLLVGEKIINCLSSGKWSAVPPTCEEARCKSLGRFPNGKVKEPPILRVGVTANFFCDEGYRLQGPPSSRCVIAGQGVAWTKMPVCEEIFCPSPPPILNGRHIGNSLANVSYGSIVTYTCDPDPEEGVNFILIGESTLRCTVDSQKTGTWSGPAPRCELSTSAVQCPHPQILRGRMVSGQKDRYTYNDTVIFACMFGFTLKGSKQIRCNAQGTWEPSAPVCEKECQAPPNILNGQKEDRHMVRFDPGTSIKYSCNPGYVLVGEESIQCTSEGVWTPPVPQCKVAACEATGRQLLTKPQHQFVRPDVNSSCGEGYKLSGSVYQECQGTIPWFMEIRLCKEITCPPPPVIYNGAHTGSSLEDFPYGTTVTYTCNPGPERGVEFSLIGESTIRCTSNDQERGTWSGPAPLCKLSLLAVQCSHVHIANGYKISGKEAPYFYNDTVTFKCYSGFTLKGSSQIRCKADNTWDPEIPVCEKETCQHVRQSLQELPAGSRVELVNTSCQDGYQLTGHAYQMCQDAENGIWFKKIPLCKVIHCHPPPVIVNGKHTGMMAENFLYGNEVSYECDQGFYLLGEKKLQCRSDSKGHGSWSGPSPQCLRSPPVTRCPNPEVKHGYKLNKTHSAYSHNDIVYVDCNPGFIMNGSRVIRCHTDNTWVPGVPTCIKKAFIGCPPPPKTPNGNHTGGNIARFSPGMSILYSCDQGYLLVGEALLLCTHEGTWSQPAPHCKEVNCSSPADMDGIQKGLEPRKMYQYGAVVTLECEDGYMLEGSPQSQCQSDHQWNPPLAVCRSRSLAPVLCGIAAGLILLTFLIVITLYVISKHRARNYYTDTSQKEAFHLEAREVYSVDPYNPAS

T2: human CD21 protein (human, UniProt P20023 21-971, limits assumed)
T2 construct: the Biacore set-up is not described; also called huCD21; CR2
T2 sequence (looked up): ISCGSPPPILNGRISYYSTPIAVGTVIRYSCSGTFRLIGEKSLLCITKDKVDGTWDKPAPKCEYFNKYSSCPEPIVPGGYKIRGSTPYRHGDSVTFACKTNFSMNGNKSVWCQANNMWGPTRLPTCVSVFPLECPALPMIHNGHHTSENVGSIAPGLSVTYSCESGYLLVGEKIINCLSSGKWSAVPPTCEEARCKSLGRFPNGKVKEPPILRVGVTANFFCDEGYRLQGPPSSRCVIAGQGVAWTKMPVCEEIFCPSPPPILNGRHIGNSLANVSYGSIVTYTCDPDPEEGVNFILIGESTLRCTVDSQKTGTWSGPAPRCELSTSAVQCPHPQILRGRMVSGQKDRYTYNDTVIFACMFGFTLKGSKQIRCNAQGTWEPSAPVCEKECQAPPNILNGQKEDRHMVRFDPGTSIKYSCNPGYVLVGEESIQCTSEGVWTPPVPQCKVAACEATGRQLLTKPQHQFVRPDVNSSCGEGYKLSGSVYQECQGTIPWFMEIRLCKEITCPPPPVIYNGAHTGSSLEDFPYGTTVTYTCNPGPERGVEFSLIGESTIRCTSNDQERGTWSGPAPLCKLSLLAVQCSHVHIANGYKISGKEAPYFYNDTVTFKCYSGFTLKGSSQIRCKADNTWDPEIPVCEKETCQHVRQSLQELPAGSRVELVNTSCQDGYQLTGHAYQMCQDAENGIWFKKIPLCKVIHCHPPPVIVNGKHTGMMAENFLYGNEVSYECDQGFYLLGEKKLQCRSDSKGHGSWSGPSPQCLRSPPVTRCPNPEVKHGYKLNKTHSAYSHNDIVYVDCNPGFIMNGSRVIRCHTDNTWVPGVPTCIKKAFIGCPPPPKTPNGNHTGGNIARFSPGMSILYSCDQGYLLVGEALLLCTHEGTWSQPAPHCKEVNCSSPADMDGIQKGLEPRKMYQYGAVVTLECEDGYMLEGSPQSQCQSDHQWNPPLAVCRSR

B1: Ab194 (antibody, human IgG1, kappa, V domains shown)
VH: QVQLVQSGAEVKKPGSSVKVSCKASGGTFSTYAISWVRQAPGQGLEWMGRIIPILGIANYAQKFQGRVTITADKSTSTAYMELSSLRSEDTAVYYCAREDDSSGYYQDWGQGTLVTVSS
VL: EIVMTQSPATLSVSPGERATLSCRAGQSINSYLAWYQQKPGQAPRLLIYDASTRATGIPARFSGSGSGTEFTLTISSLQSEDFAVYYCQQYEYWYTFGQGTKLEIKR
notes: full-length human IgG1
B2: Ab204 (antibody, human IgG1, kappa, V domains shown)
VH: B1 VH with T28E, F29L, S30Q, T31D, Y32L, S102I
VL: B1 VL with Y32H
notes: full-length human IgG1
B3: Ab416 (antibody, human IgG1, kappa, V domains shown)
VH: B1 VH with T31S
VL: B1 VL
notes: IgG1
B4: Ab422 (antibody, human IgG1, kappa, V domains shown)
VH: B1 VH with T28E, F29L, S30Q, Y32L, S102I
VL: B1 VL
notes: IgG1
B5: Ab419 (antibody, human IgG1, kappa, V domains shown)
VH: B1 VH with T28E, F29L, S30Q, Y32L, S102I
VL: B1 VL with Y32H
notes: IgG1
B6: Ab424 (antibody, human IgG1, kappa, V domains shown)
VH: B1 VH with S102I
VL: B1 VL
notes: IgG1
B7: Ab421 (antibody, human IgG1, kappa, V domains shown)
VH: B1 VH with S102I
VL: B1 VL with Y32H
notes: IgG1
B8: Ab417 (antibody, human IgG1, kappa, V domains shown)
VH: B1 VH with T28E, F29L, S30Q, T31D, Y32L, S102I
VL: B1 VL
notes: IgG1
B9: Ab420 (antibody, human IgG1, kappa, V domains shown)
VH: B1 VH with T31S, S102I
VL: B1 VL with Y32H
notes: IgG1
B10: Ab632 (antibody, human IgG1, kappa, V domains shown)
VH: B1 VH with T31S, D100E, S102I
VL: B1 VL with N30S, S31H, T53S, T96S
notes: IgG1
B11: Ab629 (antibody, human IgG1, kappa, V domains shown)
VH: B1 VH with T31S, D100E, S102I
VL: B1 VL with N30S, S31R, T96S
notes: IgG1
B12: Ab628 (antibody, human IgG1, kappa, V domains shown)
VH: B1 VH with T31S, D100E, S102I
VL: B1 VL with N30S, S31H, T96S
notes: IgG1
B13: Ab630 (antibody, human IgG1, kappa, V domains shown)
VH: B1 VH with T31S, D100E, S102I
VL: B1 VL with E1D, N30S, T53S, T96S
notes: IgG1
B14: Ab627 (antibody, human IgG1, kappa, V domains shown)
VH: B1 VH with T31S, D100E, S102I
VL: B1 VL with S28K, N30S, T96S
notes: IgG1
B15: Ab631 (antibody, human IgG1, kappa, V domains shown)
VH: B1 VH with T31S, D100E, S102I
VL: B1 VL with S28K, N30S, T53S, T96S
notes: IgG1
B16: Ab633 (antibody, human IgG1, kappa, V domains shown)
VH: B1 VH with T31S, D100E, S102I
VL: B1 VL with N30S, S31R, T53S, T96S
notes: IgG1

Each binder was assayed against T1, human CD21 on Raji B cells or primary B … (assay: competition with human C3d on Raji B cells).

Binder | IC50 [nM]
B1 | 0.009
B2 | 0.005

Each binder was assayed against T2, human CD21 protein (assay: SPR (Biacore), KD against Ab89).

Binder | fold improvement of affinity over Ab89 [fold]
B1 | ~81
B2 | ~81

These binders were tested against T2, human CD21 protein (assay: SPR (Biacore)).

Binder | Kd [nM]
B3 | 0.78
B4 | 0.04
B5 | 2.38
B6 | 0.05
B7 | 2.26
B8 | 0.02
B9 | 2.26

What follows are binders tested against T2, human CD21 protein (assay: affinity KD; method not restated (Biacore elsewhere)).

Binder | Kd [nM]
B3 | 0.78
B4 | 0.04
B10 | 0.01
B5 | 2.38
B11 | 0.02
B12 | 0.01
B6 | 0.05
B13 | 0.01
B14 | 0.02
B7 | 2.26
B8 | 0.02
B9 | 2.26
B15 | 0.03
B16 | 0.02

Each binder was assayed against T1, human CD21 on Raji B cells or primary B … (assay: competition with human C3d on primary B cells).

Binder | IC50 [nM]
B1 | 0.006
B2 | 0.007

What follows are binders tested against cyno CD21 protein (cynomolgus monkey) (assay: SPR (Biacore)).

Binder | Kd [nM]
B1 | 9.16
B2 | 0.06

What follows are binders tested against cyno CD21 protein (cynomolgus monkey) (assay: SPR (Biacore), KD against Ab89).

Binder | fold improvement of KD over Ab89 [fold]
B1 | 2
B2 | 357

What follows are binders tested against cyno CD21 protein (cynomolgus monkey) (assay: affinity KD; method not restated (Biacore elsewhere)).

Binder | Kd [nM]
B3 | 9.73
B4 | 0.24
B10 | 0.08
B5 | 0.21
B11 | 0.1
B12 | 0.11
B6 | 0.03
B13 | 0.09
B14 | 0.15
B7 | 0.25
B8 | 0.08
B9 | 0.22
B15 | 0.19
B16 | 0.12

Target: T2, human CD21 protein
Test: SPR (Biacore)
Remark: another data set of the same source

Binder | Kd [nM]
B1 | 0.81
B2 | 0.81

The binders below were run against T1, human CD21 on Raji B cells or primary B … (assay: cell-based or functional assay).

Binder | pAKT inhibition, IC50, nM; Primary B cells [nM] | pAKT inhibition, IC50, nM; Raji B cells [nM]
B3 | 14.6 | 8.59
B4 | 9.98 | 15.8
B5 | 47.8 | 11.2
B6 | 11.6 | 9.38
B7 | 56.2 | 8.59
B8 | 3.94 | 8.91
B9 | 61.1 | 26.2

These binders were tested against insulin (UniProt P01308) (assay: polyreactivity ELISA on coated insulin; third number of the cell).
Sequence of insulin (P01308 25-54 limits assumed, chain 1 of 2): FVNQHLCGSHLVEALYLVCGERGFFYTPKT
Sequence of insulin (P01308 90-110 limits assumed, chain 2 of 2): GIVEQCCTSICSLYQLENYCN

Binder | insulin-binding score (ratio to buffer well)
B3 | 2
B4 | 2
B5 | 2
B6 | 2
B7 | 2
B8 | 2
B9 | 2

Target: T1, human CD21 on Raji B cells or primary B …
Test: cell-based or functional assay
Remark: another data set of the same source

Binder | pAKT inhibition, IC50, nM; Primary B cells [nM] | pAKT inhibition, IC50, nM; Raji B cells [nM]
B3 | 14.6 | 8.59
B4 | 9.98 | 15.8
B10 | 4.43 | 
B5 | 47.8 | 11.2
B12 | 11.7 | 
B6 | 11.6 | 9.38
B7 | 56.2 | 8.59
B8 | 3.94 | 8.91
B9 | 61.1 | 26.2

Target: cyno CD21 protein (cynomolgus monkey)
Test: SPR (Biacore)
Remark: another data set of the same source

Binder | Kd [nM]
B3 | 9.13
B4 | 0.24
B5 | 0.21
B6 | 0.03
B7 | 0.25
B8 | 0.08
B9 | 0.22
